Biological target: SARS-CoV-2 Spike protein S1 (SARS-CoV-2) (UniProt P0DTC2)
Experiment: BLI

“peptide … (sequence 24-42 of the ACE2 α1 domain)” gave an IC50 of 0.7 µM and a peptide concentration of half effect on koff of the S1-ACE2 complex of 0.6 µM.
